Results as given in patent US11506662B2, “Detection, identification, and purification of degradative and non-degradative enzymes in biological samples” (The Regents of the University of California, priority 2016, dated 2022).
One block for each compound: values may come before it. Starred links: 1 amine or outer side, 2 acyl side, 3 side chain; linkers in the order of their positions; H or OH if unused. Non-standard residues stand in square brackets, D forms with d. *: point of attachment. BFL = BODIPY FL (diaminoethyl-BODIPY FL label), CC1=CC(C)=[N+]2C1=Cc1ccc(CCC(=O)NCCN*)n1[B-]2(F)F; diaminoethyl = diaminoethyl linker to BODIPY FL label; Suc = O=C(CCC(=O)[*:2])[*:1]; Cy5 = Cy5 fluorescent dye; Nle = CCCC[C@H](N)C(=O)O

Columns and labels:
Type in all cases: biochemical
thrombin [1] = target: T1, thrombin (Homo sapiens, UniProt P00734); assay: Coagulation monitoring: thrombin activity in whole blood of subjects taking anticoagulant vs control
T1 construct: from tissue; host or cells: whole blood of subjects
Experimental: To detect thrombin activity and monitor coagulation, the thrombin targeted charge-changing peptide shown in FIG. 9 (and with the sequence of Ac-N-D^−-D^−-Nle-T-P-R^+//G-S-A-G-A-G-A-G-diamino-ethyl-BFL (SEQ ID NO:1)) was incubated in a drop of whole blood from subjects taking an anticoagulant (aspirin) and from control subjects that were not taking an anticoagulant. Fluorescence signal, indicating specific binding of the peptide to thrombin in the whole blood sample, was measured at various time points up to 30 minutes.

thrombin [2] = target: T1, thrombin; assay: Thrombin detection using thrombin-specific charge-changing peptide substrate in 1×PBS or citrated blood; conditions: 0-100 nM
Experimental: Various concentrations (0 nM, 0.5 nM, 5 nM, 10 nM, 20 nM, or 100 nM) of the thrombin targeted charge-changing peptide shown in FIG. 9 (and with the sequence Ac-N-D^−-D^−-Nle-T-P-R^+//G-S-A-G-A-G-A-G-diamino-ethyl-BFL (SEQ ID NO:1)) was incubated in either 1×PBS (FIG. 10A) or citrated blood (FIG. 10B), both of which contained thrombin. After incubation, fluorescence was measured, indicating specific binding of the peptide to the thrombin in the sample.

thrombin [3] = target: T1, thrombin; assay: Whole blood thrombin detection with charge-changing peptide; conditions: untreated whole blood
Experimental: The thrombin targeted charge-changing peptide shown in FIG. 9 (and with the sequence Ac-N-D^−-D^−-Nle-T-P-R^+//G-S-A-G-A-G-A-G-diamino-ethyl-BFL (SEQ ID NO:1)) was incubated in untreated whole blood for up to 33 minutes. A negative control was also prepared See FIG. 11A. Fluorescence was measured at 3 minute intervals during incubation.

cathepsin-S = cathepsin-S (Homo sapiens, UniProt P25774); assay: Cathepsin-S detection in buffer with charge-changing peptide; conditions: 1×PBS buffer with varying concentrations of cathepsin-S
Experimental: The cathepsin-S targeted charge-changing peptide shown in FIG. 9 (and with the sequence N-SUC^−-E^−-G-R^+-W-H-T-V-G//L-R^+-W-E^−-C(Cy5^−)-R^+CO-NH2 (SEQ ID NO:5)) was incubated in 1×PBS buffer with varying concentrations of cathepsin-S. After incubation, fluorescence was measured, indicating specific binding of the peptide to the cathepsin-S in the sample.

cathepsin-S, sequence (P25774 115-331, species assumed): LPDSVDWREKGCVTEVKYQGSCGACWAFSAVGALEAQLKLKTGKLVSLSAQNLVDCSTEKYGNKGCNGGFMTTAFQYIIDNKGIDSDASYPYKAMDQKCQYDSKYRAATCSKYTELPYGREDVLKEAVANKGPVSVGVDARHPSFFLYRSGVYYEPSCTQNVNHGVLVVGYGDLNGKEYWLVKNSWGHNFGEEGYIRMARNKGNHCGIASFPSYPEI

Rate of fluorescence increase (thrombin activity), anticoagulant subjects vs control (thrombin [1]; whole blood from subjects taking aspirin vs subjects not taking an anticoagulant, up to 30 minutes): more quickly in the control group
Compound: CC(=O)Oc1ccccc1C(=O)O [aspirin, reference compound]

Time of peak fluorescence values (thrombin [3]; incubation up to 33 minutes): about 18 minutes
Fluorescence signal during incubation (thrombin [3]; up to 33 minutes, measured at 3 minute intervals): increased over time
Compound: Ac-N-D^−-D^−-Nle-T-P-R^+//G-S-A-G-A-G-A-G-diamino-ethyl-BFL (Ac-NDD[Nle]TPRGSAGAGAG-{diaminoethyl-BFL}) [SEQ ID NO:1, thrombin targeted charge-changing fluorescent peptide substrate]
Fluorescence after incubation (thrombin [2]; 1×PBS containing thrombin): Fluorescence increased with increasing thrombin concentration
Fluorescence after incubation (thrombin [2]; citrated blood containing thrombin): Fluorescence increased with increasing thrombin concentration
Fluorescence signal (thrombin activity) over time (thrombin [1]; drop of whole blood, time points up to 30 minutes, both subject groups): increased in both subject groups over time

Compound: N-SUC^−-E^−G-R^+-W-H-T-V-G//L-R^+-W-E^−-C(Cy5^−)-R^+-CO-NH2 (Suc-EGRWHTVGLRWEC(Cy5)R-NH2) [SEQ ID NO:5, cathepsin-S targeted charge-changing fluorescent peptide substrate]
Fluorescence after incubation (cathepsin-S): Fluorescence increased with increasing cathepsin-S concentration
